Laboratory results taken from patent US20070292347A1 (LONDON HEALTH SCIENCES CENTRE RESEARCH, published 2007).
Square brackets hold non-standard residues; d marks the D form. Ends that are not written are not given here. Cit = NC(=O)NCCC[C@H](N)C(=O)O

Legend:
[1] = biological target: T1, purified HLA-DRB1*0401 molecule (human); assay: peptide competition assay, displacement of radio-labelled peptide probe from purified MHC class II
T1 construct: Purified MHC class II molecule
Text: (§1) Results are expressed as the inverse of the IC₅₀ values measured in nM.

[2] = biological target: T2, purified HLA-DRB1*0404 molecule (human); assay: as above
T2 construct: Purified MHC class II molecule
Text: as §1

[3] = biological target: T3, purified HLA-DRB1*0101 molecule (human); assay: as above
T3 construct: Purified MHC class II molecule
Text: as §1

[4] = biological target: T4, purified HLA-DRB1*1101 molecule (human); assay: peptide competition assay on purified MHC class II
T4 construct: Purified MHC class II molecule
Text: as §1

[5] = biological target: T5, purified HLA-DRB1*1302 molecule (human); assay: peptide competition assay on purified MHC class II
T5 construct: Purified MHC class II molecule
Text: as §1

[6] = biological target: T6, purified HLA-DRB1*0802 molecule (human); assay: peptide competition assay on purified MHC class II
T6 construct: Purified MHC class II molecule
Text: as §1

[7] = biological target: T7, purified HLA-DRB1*0301 molecule (human); assay: peptide competition assay on purified MHC class II
T7 construct: Purified MHC class II molecule
Text: as §1

B1: Vim R70Cit, altered human vimentin peptide 65-77 (peptide)
peptide: SAVRA[Cit]SSVPGVR
notes: Synthetic peptide; also called Vimentin R70Cit; citrulline containing vimentin peptide
With B1 the “fold higher affinity compared to the unmodified peptide (Vim 65-77)” value (“fold higher affinity” below) [1] was 90 fold, the “fold higher affinity” value [2] was 20 fold and the “fold higher affinity” value [3] was 100 fold.

B2: Vim 65-77, human vimentin peptide 65-77 (peptide)
peptide: SAVRARSSVPGVR
notes: Synthetic peptide (Genemed Synthesis); also called Vimentin 65-77; unmodified vimentin peptide
B2: binds [4]; binds [5]; binds [6]. B2: binds [7].
